Common to all, as to assay: ITC
Data set [1] deals with T1, TRBP-D12 (Homo sapiens, UniProt Q15633 19-228).
T1 sequence: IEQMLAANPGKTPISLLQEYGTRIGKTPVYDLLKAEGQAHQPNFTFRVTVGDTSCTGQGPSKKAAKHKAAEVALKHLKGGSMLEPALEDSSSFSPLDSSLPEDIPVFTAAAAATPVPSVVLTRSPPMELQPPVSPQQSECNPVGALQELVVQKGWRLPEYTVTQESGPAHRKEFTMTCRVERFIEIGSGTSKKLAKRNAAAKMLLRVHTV

Data set [2] has as its target T2, TRBP-D2 (Homo sapiens, UniProt Q15633 157-228).
T2 sequence: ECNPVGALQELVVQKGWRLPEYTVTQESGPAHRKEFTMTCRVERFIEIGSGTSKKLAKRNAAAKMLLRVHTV

The target in data set [3] is T1, TRBP-D12. The source holds these as a separate data set.
Data set [4] concerns the target T3, TRBP-D1 (Homo sapiens, UniProt Q15633 19-99).
T3 sequence: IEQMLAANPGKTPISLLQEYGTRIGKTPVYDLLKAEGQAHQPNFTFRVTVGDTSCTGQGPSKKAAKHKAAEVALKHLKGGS

Like-named read-outs stand apart in the source and are kept apart here.

B1: miR-155/miR-155* (dsRNA)
RNA 1: GGAAUGCUAAUCGUGAUAGGCCU
RNA 2: GGCCUACAUAUUAGCAUUCCCA
As for B1, the dissociation constant Kd in data set [1] stood at 1000 ± 700 nM.

B2: pre-miR-155 (structured_RNA)
RNA: GGAAUGCUAAUCGUGAUAGGGGUUUUUGCCUCCAACUGACUCCUACAUAUUAGCAUUCCCA
B2: the Kd in data set [2] was 3700 ± 500 nM; in data set [3], 500 nM; in data set [4], 15400 ± 800 nM.

These data come from paper PMC3627579.
